Measurements published in publication PMC3591335.
Like-named read-outs stand apart in the source and are kept apart here.

Key:
[1] = target: Cholera toxin B subunit expressed in E. coli (eCTB) (Vibrio cholerae) (UniProt P01556); test: non-heat-denaturing SDS-PAGE
[2] = target: Cholera toxin B subunit expressed in E. coli (eCTB) (Vibrio cholerae) (UniProt P01556); test: non-heat-denaturing SDS-PAGE; remark: listed apart in the source

Substance: Cholera toxin B subunit expressed in E. coli (eCTB) (from UniProt P01556 22-124) (natural protein)
- stoichiometry N [1]: 10
- stoichiometry N [2]: 5
